This note sets out measurements from patent US20240132581A1 (BEIJING WISDOMAB BIOTECHNOLOGY, published 2024).

The labels stand for the following.
B2: hTSLP1-m-mFc (Fc fusion)
chain: YDFTNCDFEKIKAAYLSTISKDLITYMSGTKSTEFNNTVSCSNRPHCLTEIQSLTFNPTAGCASLAKEMFAMKTKAALAIWCPGYSETQINATQAMKKVTTNKCLEQVSQLQGLWRRFNRPLLKQQPRGPTIKPCPPCKCPAPNLLGGPSVFIFPPKIKDVLMISLSPIVTCVVVDVSEDDPDVQISWFVNNVEVHTAQTQTHREDYNSTLRVVSALPIQHQDWMSGKEFKCKVNNKDLPAPIERTISKPKGSVRAPQVYVLPPPEEEMTKKQVTLTCMVTDFMPEDIYVEWTNNGKTELNYKNTEPVLDSDGSYFMYSKLRVEKKNWVERNSYSCSVVHEGLHNHHTTKSFSRTPGK
notes: also called recombinant protein hTSLP1-m-mFc

For assay [1], the target named is cynomolgus monkey TSLP (mfTSLP) (cynomolgus monkey (Macaca fascicularis)). Put plainly: SPR Biacore X100 as in Example 3.1, antibody captured, mfTSLP as analyte. In general terms: Surface plasmon resonance follows binding to a sensor surface in real time, without labels.
For assay [2], the target named is B2. Put plainly: SPR (Biacore T200): hTSLP1-m-mFc captured (about 80 RU) by anti-mFc antibody on CM5, antibody at 50 µg/mL [continued) E].
Method: (§1) The recombinant protein hTSLP1-m-mFc was diluted to 2 μg/mL with 1×HBS-EP buffer, and was injected at 10 μL/min for 12 s. Approximately 80 RU of hTSLP1-m-mFc was captured by the anti-mFc antibody. […] Two molecules were sequentially injected using a double injection mode of Biacore T200. […] Each of the molecules was injected for 90 s. The surface of the chip was regenerated at the end of the injection by injecting 10 mM glycine-HCl (pH 1.7) at 10 μL/min for 30 s. The Y-axis reporting points for the double baselines were zeroed using Biacore T200 evaluation software version 3.0, and then the RU values were plotted against times using GraphPad software.
Assay [3] deals with T1, hTSLP:hTSLPR complex (hTSLP1-m-mFc with hTSLPR-ECD bound, formed on the chip) (human (Homo sapiens), UniProt Q9HC73 23-231).
T1 construct: also called TSLP:TSLPR complex
Put plainly: SPR (Biacore T200): chip surface with hTSLP1-m-mFc captured by anti-mFc antibody and loaded with hTSLPR-ECD, antibody at 50 µg/mL injected before hIL-7Rα-ECD [continued) D].
Method: (§2) Two molecules were sequentially injected using a double injection mode of Biacore T200. […] Each of the molecules was injected for 60 s. The surface of the chip was regenerated at the end of the injection by injecting 10 mM glycine-HCl (pH 1.7) at 10 μL/min for 30 s. The Y-axis reporting points for the double baselines were zeroed using Biacore T200 evaluation software version 3.0, and then the RU values were plotted against times using GraphPad software.

In assay [4] the target is T2, extracellular domain of human TSLP receptor (hTSLPR-ECD) (human (Homo sapiens), UniProt Q9HC73 23-231).
T2 sequence: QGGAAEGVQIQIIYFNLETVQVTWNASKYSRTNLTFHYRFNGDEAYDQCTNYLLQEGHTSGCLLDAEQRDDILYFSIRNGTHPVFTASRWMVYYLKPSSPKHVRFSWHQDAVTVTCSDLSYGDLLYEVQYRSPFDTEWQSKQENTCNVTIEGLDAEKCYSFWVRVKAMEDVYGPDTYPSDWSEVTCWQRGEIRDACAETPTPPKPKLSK
Put plainly: SPR (Biacore T200): hTSLP1-m-mFc captured (about 80 RU) by anti-mFc antibody on CM5, buffer then hTSLPR-ECD at 100 µg/mL.
Method: as §1

Assay [5] deals with B2. Put plainly: SPR (Biacore T200): hTSLP1-m-mFc captured (about 80 RU) by anti-mFc antibody on CM5, antibody at 50 µg/mL [continued) C].
Method: as §1
Assay [6] has as its target T1, hTSLP:hTSLPR complex (hTSLP1-m-mFc with …). Put plainly: SPR (Biacore T200): chip surface with hTSLP1-m-mFc captured by anti-mFc antibody and loaded with hTSLPR-ECD, antibody at 50 µg/mL injected before hIL-7Rα-ECD [continued) B].
Method: as §2
For assay [7], the target named is B2. Nature of the assay: SPR (Biacore T200): hTSLP1-m-mFc captured (about 80 RU) by anti-mFc antibody on CM5, antibody at 50 µg/mL [continued) D].
Method: as §1
Assay [8] addresses T1, hTSLP:hTSLPR complex (hTSLP1-m-mFc with …). Nature of the assay: SPR (Biacore T200): chip surface with hTSLP1-m-mFc captured by anti-mFc antibody and loaded with hTSLPR-ECD, antibody at 50 µg/mL injected before hIL-7Rα-ECD [continued) C].
Method: as §2

B1: H1A10×H3B10-M1+L3E8-M7 BsAb (anti-human TSLP bispecific antibody) (bispecific antibody, human IgG1, kappa)
heavy 1: QVQLVQSGAEVKKPGASVKVSCKASGYAFSNYWMNWVRQAPGQGLEWMGQIFPGDSDTDYDQKFQGRVTMTRDTSTSTVYMELSSLRSEDTAVYYCARAGYYRGYYAMDYWGQGTTVTVSSASTKGPSVFPLAPSSKSTSGGTAALGCLVKDYFPEPVTVSWNSGALTSGVHTFPAVLQSSGLYSLSSVVTVPSSSLGTQTYICNVNHKPSNTKVDKRVEPKSCDKTHTCPPCPAPEFEGGPSVFLFPPKPKDTLMISRTPEVTCVVVDVSHEDPEVKFNWYVDGVEVHNAKTKPREEQYNSTYRVVSVLTVLHQDWLNGKEYKCKVSNKALPASIEKTISKAKGQPREPQVYTLPPCREEMTKNQVSLWCLVKGFYPSDIAVEWESNGQPENNYKTTPPVLDSDGSFFLYSKLTVDKSRWQQGNVFSCSVMHEALHNHYTQKSLSLSPGK
heavy 2: QVTLKESGPVLVKPTETLTLTCTVSGFSLSSYDISWIRQPPGKALEWLGVIWSEGGTSYSTSLKSRLTISKDTSKSQVVLTMTNMDPVDTATYYCARDSDDGYLNWGQGTLVTVSSASTKGPSVFPLAPSSKSTSEGTAALGCLVKDYFPEPVTVSWNSGALTSGVHTFPAVLQSSGLYSLSSVVTVPSSSLGTQTYICNVDHKPSNTKVDKTVEPKSCDKTHTCPPCPAPEFEGGPSVFLFPPKPKDTLMISRTPEVTCVVVDVSQEDPEVQFNWYVDGVEVHNAKTKPREEQYNSTYRVVSVLTVLHQDWLNGKEYKCKVSNKALPASIEKTISKAKGQPREPQVCTLPPSQEEMTKNQVSLSCAVKGFYPSDIAVEWESNGQPENNYKTTPPVLDSDGSFFLVSKLTVDKSRWQEGNVFSCSVMHEALHNHYTQKSLSLSPGK
light: EIVMTQSPATLSVSPGERATLSCSVSSSISSSNLHWYQQKPGQAPRPWIYGTSNLASGIPARFSGSGSGTEFTLTISSVQAEDFAVYYCQQWSSYPLTFGQGTKLEIKRTVAAPSVFIFPPSDEQLKSGTASVVCLLNNFYPREAKVQWKVDNALQSGNSQESVTEQDSKDSTYSLSSTLTLSKADYEKHKVYACEVTHQGLSSPVTKSFNRGEC
notes: also called bispecific antibody H1A10×H3B10-M1+L3E8-M7; bispecific antibody H1A10×H3B10-M1
As a reminder, the Kd is the equilibrium constant for the complex coming apart. B1: in assay [1], the Kd is 2.75 nM. Moreover, the binding result (in the assay with hTSLP1-m-mFc [2]; in assay [3]) was “binds” throughout.
Regarding B2, the binding result in assay [4] is recorded as “binds”.

B3: H3B10-M1+L3E8-M7 (humanized monoclonal antibody) (antibody, V domains shown)
VH: QVTLKESGPVLVKPTETLTLTCTVSGFSLSSYDISWIRQPPGKALEWLGVIWSEGGTSYSTSLKSRLTISKDTSKSQVVLTMTNMDPVDTATYYCARDSDDGYLNWGQGTLVTVSS
VL: EIVMTQSPATLSVSPGERATLSCSVSSSISSSNLHWYQQKPGQAPRPWIYGTSNLASGIPARFSGSGSGTEFTLTISSVQAEDFAVYYCQQWSSYPLTFGQGTKLEIK
notes: Expressed as a whole antibody
On to B3, for which the binding result (with hTSLP1-m-mFc [5]; in assay [6]) was “binds” in each case.

B4: H1A10+L3E8-M7 (humanized monoclonal antibody) (antibody, V domains shown)
VH: QVQLVQSGAEVKKPGASVKVSCKASGYAFSNYWMNWVRQAPGQGLEWMGQIFPGDSDTDYDQKFQGRVTMTRDTSTSTVYMELSSLRSEDTAVYYCARAGYYRGYYAMDYWGQGTTVTVSS
VL: EIVMTQSPATLSVSPGERATLSCSVSSSISSSNLHWYQQKPGQAPRPWIYGTSNLASGIPARFSGSGSGTEFTLTISSVQAEDFAVYYCQQWSSYPLTFGQGTKLEIK
notes: Expressed as a whole antibody
Consider B4, for which the binding result (with hTSLP1-m-mFc [7]; in assay [8]) was “binds” throughout.
